Experimental findings from US20190367616A1 (SYMPHOGEN A S, published 2019) are described below.

Substitutions are numbered along the chain they refer to. Names and notes keep the numbering of the source.

The labels stand for the following.
T1: mouse PD-1 ECD (Sino Biological cat. no. 50124-MO8H) (mouse, UniProt Q02242 25-169)
T1 construct: extracellular domain; Bought monomeric ECD
T1 sequence (looked up): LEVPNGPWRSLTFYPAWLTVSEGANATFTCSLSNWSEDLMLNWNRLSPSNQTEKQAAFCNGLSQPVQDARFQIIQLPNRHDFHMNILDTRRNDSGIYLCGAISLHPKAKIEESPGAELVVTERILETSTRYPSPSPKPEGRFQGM

B1: antibody 18483 (antibody, V domains shown)
VH: QVQLQQSGGGLVQPGGSLRLSCAASGFTFSDYWMNWVRQAPGKGLEWVANIKEDGNEKYYVDSVKGRFTISRDNAKNSLYLQMNSLRAEDTAVYYCARDTNWGSDYWGQGTLVTVSS
VL: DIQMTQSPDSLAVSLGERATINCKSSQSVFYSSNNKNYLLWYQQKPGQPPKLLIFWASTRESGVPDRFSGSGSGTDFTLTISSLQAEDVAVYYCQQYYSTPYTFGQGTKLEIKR
notes: Tested as human IgG1 L234A/L235A (LALA), kappa
B2: antibody 18040 (antibody, V domains shown)
VH: QVQLVESGGGLVKPGGSLRLSCAASGFTFSDYYMNWIRQAPGKGLEWVSYISSTGSTIYYADSVKGRFTISRDNAKNSLYLQMDSLRAEDTAVYYCARATNWGSDYWGQGTLVTVSS
VL: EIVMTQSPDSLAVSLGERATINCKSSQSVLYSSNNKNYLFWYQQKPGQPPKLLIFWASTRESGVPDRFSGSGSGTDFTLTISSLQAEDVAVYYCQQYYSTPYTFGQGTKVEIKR
notes: Tested as human IgG1 L234A/L235A (LALA), kappa; The VH/VL entries carry X at variable positions
B3: antibody 18113 (antibody, V domains shown)
VH: B2 VH with N35S, T54S, V64A, D84N, A99D, G103A, S104F
VL: DIQLTQSPDSLAVSLGERATINCKSSQSVFYSANNKNYLAWYQQKPGQPPKLLIYWTSTRESGVPDRFRGSGSGTDFTLTISSLQAEDVAVYYCQQFYSTPRTFGQGTKVEIKR
notes: as for B1
B4: antibody 18098 (antibody, V domains shown)
VH: QVQLQESGGGLVRPGGSLRLSCAASGFTFSSFAMNWVRQAPGKGLVWVSTITGGGTTSYYADSVKGRFTISRDNSKSTLFLQMNSLRAEDTAVYYCAKWGSWSAGAFDIWGQGTTVTVSS
VL: DIQLTQSPSSVSASVGDRVTITCRASQGISSWLAWYQQKPGKAPKLLIYAASSLQSGVPSRFSGSGSGTDFTLTISSLQPEDFATYYCQQANSFPWTFGQGTKVEIKR
notes: as for B1
B5: antibody 18413 (antibody, V domains shown)
VH: EVQLVESGGGLVQPGGSLRLSCAASGFTFSSFVMSWVRQAPGKGLEWLSTISGGGGSTYYADSVKGRFTISRDNSKNTLYLQMNSLRAEDTAVYYCAKDWDLYYFDYWGQGTLVTVSS
VL: B4 VL with S12P, S31N, W96L, Q100G
notes: as for B1
B6: antibody 18325 (antibody, V domains shown)
VH: QVQLQQSGGGLVQPGGSLRLSCAASGFTFSSHVMNWVRQAPGKGLEWVATISGSGVDTYYADSVKGRFTISRGNSKNMLYLQMNSLRAEDTAVYYCAKWGSWSAGAFDIWGQGTMVTVSS
VL: B4 VL with D1E, Q3V
notes: as for B1
B7: antibody 18049 (antibody, V domains shown)
VH: QVQLVESGGGVVQPGRSLRLSCAASGFTFSNYGMHWVRQAPGKGLEWVAVIWYDGSDKYYADSVKGRFTISRDNSKNTLYLQMNSLRAEDTAVYYCAGGGNYYGDFWGQGTLVTVSS
VL: EIVMTQSPSSLSASVGDRVTITCRASQGIRNDLGWYQQKPGKAPKRLIYVASNLQSGVPSRFSGSGSGTEFTLTISSLQPEDFATYYCLQYNSYPWTFGQGTKVEIKR
notes: as for B1
B8: antibody 18400 (antibody, V domains shown)
VH: QLQLQESGPGLVKPSGTLSLTCAVSGGSISSSNWWSWVRQPPKKGLEWVGEIFHDGTTSYNPSLKSRVTMSVDKSKNQFSLKLSSVTAADTAVYYCARGNWGSGALDIWGPGTMVTVSS
VL: B7 VL with S10P, R46L, V50A, N53S, E70D, Y91D, N92Y, S93N, W96R
notes: as for B1

T2 sequence (Q15116 25-170, one chain of several): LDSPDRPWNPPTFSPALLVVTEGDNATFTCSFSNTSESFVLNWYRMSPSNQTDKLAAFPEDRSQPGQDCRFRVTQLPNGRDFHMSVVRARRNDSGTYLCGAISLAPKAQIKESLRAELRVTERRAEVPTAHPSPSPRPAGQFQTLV

The first assay has as its target T2, human PD-1 ECD (Acro Biosystems cat. no. PD1-H52219) (human, UniProt Q15116 25-170).
T2 construct: extracellular domain; Bought monomeric ECD; also called monomeric PD-1 antigen
The experiment in a line: SPR, antibody on sensor, monomeric PD-1 ECD in solution. Here is the method: (§1) The kinetic binding analysis was performed by Surface Plasmon Resonance (SPR) using a Continuous Flow Microspotter (CFM, Wasatch Microfluidics, US) combined with an Ibis MX96 SPR instrument (IBIS Technologies, The Netherlands). Surface Plasmon Resonance imaging analysis was performed on G-a-hu-IgG Fc SensEye® SPR sensors (Ssens BV, The Netherlands). Anti-PD-1 antibodies expressed in IgG₁ LALA format (i.e., having the mutations L234A/L235A) were diluted to 2.5 nM in PBS-T (1×PBS with 0.05% Tween 20, pH 7.4). Antibodies were spotted onto a G-a-hu-IgG Fc SensEye® for 15 minutes using a Continuous Flow Microspotter (CFM, Wasatch Microfluidics, Salt Lake City, US). After spotting, the SensEye® was positioned in the IBIS MX96 biosensor, and antibodies were chemically fixed to the sensor surface using Fix It Kit (Ssens BV, The Netherlands). Kinetic analysis was performed by applying a kinetic titration series (Karlsson et. al., Anal. Biochem. 349(1):136-47 (2006)), where monomeric PD-1 antigen was injected in increasing concentrations from 2 nM to 100 nM without application of surface regeneration steps after each antigen injection. Binding was tested to human PD-1 ECD (Acro Biosystems cat. no. PD1-H52219), mouse PD-1 ECD (Sino Biological. cat. no. 50124-MO8H) and cynomolgus PD-1 ECD (Acro Biosystems cat. no. PD1-05223) in three separate experiments. Antigen association was performed for 15 minutes and antigen dissociation was performed for 60 minutes. The kinetic analysis was performed at 25° C. After completion, the recorded binding responses were fitted to a simple Langmuir 1:1 binding model with Scrubber 2 software for calculation of the on-rate (kₒₙ or kₐ), off-rate (koff or kd) and affinity (KD) constants.
Background: Surface plasmon resonance follows binding to a sensor surface in real time, without labels.
As a reminder, the Kd is the free concentration of one partner at which half of the binding sites on the other are occupied at equilibrium, for simple one-to-one binding. A higher Kd goes with weaker binding. A word on the koff: it is a measure of how fast the partners let go of each other. Lower therefore signals a long-lived complex. Usually kon stands for the rate constant with which the complex forms. Higher therefore signals faster complex formation. Molecule B1 yielded a Kd of 0.29 nM, an off-rate constant (koff) of 0.00017 s⁻¹ and a kon of 580000 M⁻¹ s⁻¹.

Turning to B2, the affinity, expressed as Kd, was 0.41 nM; the koff amounted to 0.00011 s⁻¹; the kon was 260000 M⁻¹ s⁻¹.

Molecule B3 returned a Kd of 0.6 nM, a koff of 0.0001 s⁻¹ and a kon of 170000 M⁻¹ s⁻¹.

With B4, the Kd amounted to 2.3 nM, the koff was 0.00023 s⁻¹ and the kon is 100000 M⁻¹ s⁻¹.

On to B5, for which binding was put at a Kd of 1.5 nM, the koff amounted to 0.00011 s⁻¹ and the kon amounted to 77000 M⁻¹ s⁻¹.

B6 gave a Kd of 0.82 nM, a koff of 0.00011 s⁻¹ and a kon of 130000 M⁻¹ s⁻¹.

The molecule B7 showed a Kd of 1.8 nM, a koff of 6e-05 s⁻¹ and a kon of 34000 M⁻¹ s⁻¹.

The molecule B8 registered a Kd of 1.6 nM, a koff of 0.00035 s⁻¹ and a kon of 230000 M⁻¹ s⁻¹.

For a further assay, the target named is T3, cynomolgus PD-1 ECD (Acro Biosystems cat. no. PD1-05223) (cynomolgus, UniProt B0LAJ3 25-170).
T3 construct: Bought monomeric ECD; not shown: any purification tag of the vendor's product (Acro Biosystems PD1-05223, probably a His tag)
T3 sequence (B0LAJ3 entry or part of it limits assumed): as the sequence (Q15116 25-170, one chain of several) above, with D2E, P10A, V19L, T35A, Q75R, T144A counted along it
The description is as above. How it is done: as §1
As to B1, binding was characterised by a dissociation constant (Kd) of 3.1 nM, the koff was 0.0008 s⁻¹ and the on-rate constant (kon) stood at 260000 M⁻¹ s⁻¹.

Regarding B2, the affinity, expressed as Kd, was 2.9 nM; the koff was found to be 0.00097 s⁻¹; the kon was 340000 M⁻¹ s⁻¹.

As to B3, the Kd worked out at 5.3 nM, the koff was 0.00076 s⁻¹ and the kon came to 140000 M⁻¹ s⁻¹.

The molecule B4 returned a Kd of 34 nM, a koff of 0.0013 s⁻¹ and a kon of 39000 M⁻¹ s⁻¹.

In turn, B5 yielded a Kd of 6.4 nM, a koff of 0.00062 s⁻¹ and a kon of 97000 M⁻¹ s⁻¹.

The molecule B6 showed a Kd of 4.3 nM, a koff of 0.00062 s⁻¹ and a kon of 140000 M⁻¹ s⁻¹.

B7 had a Kd of 2.1 nM, a koff of 8e-05 s⁻¹ and a kon of 38000 M⁻¹ s⁻¹.

The molecule B8 showed a Kd of 3.7 nM, a koff of 0.00087 s⁻¹ and a kon of 230000 M⁻¹ s⁻¹.

The next assay deals with T1, mouse PD-1 ECD (Sino Biological cat. …). Described as above. How it is done:
as §1
Regarding B1, the binding result is on record as “no binding (tested: 100 nM)”.

As to B2, the binding result is reported as “no binding (tested: 100 nM)”.

For B3, the binding result was “no binding (tested: 100 nM)”.

As to B4, the binding result is “no binding (tested: 100 nM)”.

As for B5, the binding result is given as “no binding (tested: 100 nM)”.

Turning to B6, the binding result is given as “no binding (tested: 100 nM)”.

Regarding B7, the binding result is reported as “no binding (tested: 100 nM)”.

B8 had an equilibrium dissociation constant (Kd) of 11 nM, an off-rate constant (koff) of 5e-05 s⁻¹ and a kon of 4700 M⁻¹ s⁻¹.
